Earlier results, collected in publication PMC4604100, “Melanocortin agonists stimulate lipolysis in human adipose tissue explants but not in adipocytes” (BMC Research Notes, 2015).

System: MC1R
Settings: ref [24]
Description: It is still rather unclear as to what extent peripherally expressed MCRs regulate metabolism. […] In addition, POMC expression has been identified in peripheral tissues such as the skin, testes, ovaries, placenta, adrenal glands, gastrointestinal tract, immune cells and tumors. The peripheral melanocortin system was initially examined f ...

B1: Agouti/ASIP: agouti/agouti signaling protein, endogenous melanocortin receptor antagonist (protein, UniProt P42127 23-132, looked up)
Agouti-signaling protein: HLPPEEKLRDDRSLRSNSSVNLLDVPSVSIVALNKKSKQIGRKAAEKKRSSKKEASMKKVVRPRTPLSAPCVATRNSCKPPAPACCDPCASCQCRFFRSACSCRVLSLNC
antagonism on MC1R (in words): high affinity antagonist
